# Measured values reported in publication PMC4104028.
# How the values were obtained:
# [1] = molecular target: FLAG-Atg16L1 E230R, Q8C0J2-3; assay: GFP-Trap co-immunoprecipitation from mixed lysates, immunoblot quantification; details: parent: est. 2.5; read off a plot
# [2] = molecular target: endogenous Atg16L1 (HEK293A) (UniProt Q676U5); assay: GFP-Trap, immunoblot quantification; details: parent: est. 0.49; read off a plot
# [3] = molecular target: FLAG-Atg16L1 E226R, Q8C0J2-3; assay: GFP-Trap co-immunoprecipitation from mixed lysates, immunoblot quantification; details: parent: est. 2.5; read off a plot
# FLAG-Atg16L1 E226R, Q8C0J2-3, sequence (Q8C0J2 other isoform, or with tags, fused parts or gaps E226R | E226R): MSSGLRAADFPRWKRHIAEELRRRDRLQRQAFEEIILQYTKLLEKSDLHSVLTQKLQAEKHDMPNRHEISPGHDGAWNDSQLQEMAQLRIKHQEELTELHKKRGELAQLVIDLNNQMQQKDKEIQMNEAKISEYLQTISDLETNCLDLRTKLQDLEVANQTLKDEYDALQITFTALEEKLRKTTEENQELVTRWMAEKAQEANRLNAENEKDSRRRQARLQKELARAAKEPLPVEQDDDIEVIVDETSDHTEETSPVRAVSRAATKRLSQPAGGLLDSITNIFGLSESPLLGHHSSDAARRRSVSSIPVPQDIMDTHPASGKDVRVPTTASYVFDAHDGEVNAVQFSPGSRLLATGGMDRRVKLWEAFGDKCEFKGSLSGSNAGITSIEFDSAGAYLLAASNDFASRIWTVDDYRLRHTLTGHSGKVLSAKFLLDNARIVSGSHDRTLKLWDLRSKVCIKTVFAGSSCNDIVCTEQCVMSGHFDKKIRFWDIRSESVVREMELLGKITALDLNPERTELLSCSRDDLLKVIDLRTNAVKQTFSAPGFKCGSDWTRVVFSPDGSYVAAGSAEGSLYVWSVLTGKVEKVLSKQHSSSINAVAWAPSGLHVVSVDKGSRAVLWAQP
# [4] = molecular target: FLAG-Atg16L1 E226R E230R (ERER), Q8C0J2-3; assay: as above; details: parent: est. 2.5; read off a plot
# FLAG-Atg16L1 E226R E230R (ERER), Q8C0J2-3, sequence (Q8C0J2 other isoform, or with tags, fused parts or gaps E226R | E230R | E226R E230R): as the sequence (Q8C0J2 other isoform, or with tags, fused parts or gaps E226R | E226R) above, with E230R counted along it
# FLAG-Atg16L1 E230R, Q8C0J2-3, sequence (Q8C0J2 other isoform, or with tags, fused parts or gaps E230R | E230R): as the sequence (Q8C0J2 other isoform, or with tags, fused parts or gaps E226R | E226R) above, with R226E, E230R counted along it
# endogenous Atg16L1 (HEK293A), sequence (Q676U5 whole entry): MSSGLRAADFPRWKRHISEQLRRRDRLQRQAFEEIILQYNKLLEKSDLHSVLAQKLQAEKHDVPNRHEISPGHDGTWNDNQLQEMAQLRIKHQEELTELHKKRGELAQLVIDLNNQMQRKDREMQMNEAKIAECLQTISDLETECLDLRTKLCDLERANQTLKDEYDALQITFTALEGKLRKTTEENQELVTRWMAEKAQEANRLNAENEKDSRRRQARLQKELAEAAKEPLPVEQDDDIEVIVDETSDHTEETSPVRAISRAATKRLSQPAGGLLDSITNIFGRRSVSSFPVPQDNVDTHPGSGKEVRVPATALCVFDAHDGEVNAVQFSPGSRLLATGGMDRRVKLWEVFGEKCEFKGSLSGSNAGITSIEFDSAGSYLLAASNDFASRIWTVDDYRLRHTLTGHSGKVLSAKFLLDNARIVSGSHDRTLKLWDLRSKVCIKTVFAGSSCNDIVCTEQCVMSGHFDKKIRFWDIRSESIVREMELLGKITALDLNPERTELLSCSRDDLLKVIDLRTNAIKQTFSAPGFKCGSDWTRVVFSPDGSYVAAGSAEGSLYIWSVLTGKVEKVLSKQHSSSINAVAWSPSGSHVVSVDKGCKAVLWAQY
Substance,response [1],response [3],response [4],also measured
m1; m3 WIPI2b:R108E; Atg16L1:E230R,0.87,,,
GFP-WIPI2b FRRG to FTTG,,,,response [2]: 0.79
m1; m3 WIPI2b:R108E; WIPI2b:R125E; Atg16L1:E226R; Atg16L1:E230R,,,0.04,
m1; m3 WIPI2b:R125E; Atg16L1:E226R; Atg16L1:E230R,,,0.23,
m1; m3 WIPI2b:R108E; WIPI2b:R125E; Atg16L1:E226R,,0.04,,
m1; m3 WIPI2b:R108E; Atg16L1:E226R,,0.05,,
m1; m3 WIPI2b:R108E; WIPI2b:R125E; Atg16L1:E230R,0.05,,,
m1; m3 WIPI2b:R125E; Atg16L1:E230R,0.04,,,

# Continued, in another order:
response [1],response [3],response [4],Substance,also measured
,0.05,,m1; m3 WIPI2b:R125E; Atg16L1:E226R,
,,0.13,m1; m3 WIPI2b:R108E; Atg16L1:E226R; Atg16L1:E230R,
